# Patent US20090029370, “REAL TIME NUCLEIC ACID DETECTION IN VIVO USING PROTEIN COMPLEMENTATION” (TRUSTEES OF BOSTON UNIVERSITY, published 2009)
# How the values were obtained:
# Conditions in all cases: protein: synthetic; tags: custom-synthesized peptide
# [1] = molecular target: Rev peptide (printed HTLV-1 Rev); assay: EMSA; cross-reactivity; 50 mM Tris-HCl pH 8.0, 50 mM KCl, 30 C
# [2] = molecular target: T1, λN peptide (Bacteriophage lambda, UniProt P03045 SEQ:1-22); assay: EMSA; 50 mM Tris-HCl pH 8.0, 50 mM KCl, 30 C
# T1 chain: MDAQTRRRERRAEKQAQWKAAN
# [3] = molecular target: T2, Rex peptide (printed HIV-1 Rex in tables, HTLV-1 Rex in text) (Human T-cell leukemia virus type 1?); assay: EMSA; 50 mM Tris-HCl pH 8.0, 50 mM KCl, 30 C
# T2 chain: MPKTRRRPRRSQRKRP
# [4] = molecular target: T2, Rex peptide (printed HIV-1 Rex in …); assay: EMSA; 50 mM Tris-HCl pH 8.0, 50 mM KCl, 30 C, ethidium bromide stain
# Text: Experiments in vitro to choose aptamer-peptide pairs. Based on available data we chose three peptide/aptamer pairs; (i) […]; (ii) Bacterophage λN; and (iii) […] (see Table 1) and tested their binding affinity with cognate partner and cross-reactivity with two other RNA aptamers in vitro. We used non-radioactive gel-shift assay under conditions when fixed concentrations of RNA aptamer were allowed to form complexes with increasing ARM-peptide concentrations. We quantified the amount of the unbound RNA aptamer and the amount of the shifted complex (Table 1). […] At the same time, […] peptide did show some cross-reactivity with the two non-matched RNA aptamers.
# In Vitro Gel-Shift Assay. RNAs were first denatured by heating at 95° C. in buffer (50 mM pH 8.0 Tris-HCl, 50 mM KCl) for 3 minutes and then slowly cooled to room temperature to renature the RNAs. Renatured RNAs and peptides were mixed in a common buffer (50 mM Tris-HCl, pH 8.0, 50 mM KCl) at 30° C. for 15 minutes. Peptide-RNA aptamer complexes were analyzed using gel electrophoresis with 15% TBE gel. RNA aptamers and peptide-RNA aptamer complexes were stained with ethidium bromide.
Binder,binding result [1],binding result [2],binding result [3],binding result [4]
GGAUCCGGGCCCUGAAGAAGGGCCCUUUCCUUU (ssRNA) [λN aptamer (boxB)],binds,binds,no binding,–
UAGGCGACGGUACGCAAGUACUCUUGCGCCGGCCUA (ssRNA) [anti-Rex aptamer],–,no binding,–,binds
GGCUGGACUCGUACUUCGGUACUGGAGAAACAGCC (ssRNA) [anti-Rev aptamer],–,no binding,no binding,–
